Measurements from patent US6635627B1, “Anti-cancer products for treating cystic fibrosis” (Centre National de la Recherche Scientifique (CNRS), priority 1997, dated 2003).

Assay: Retention on affinity column grafted with glutathione (GSH) after thrombin cutting
Assay type: binding
Details: after cutting GST-NBF1 with thrombin; coelutes with GST
Method: The suspension was centrifuged at 17,000 rpm for 40 minutes, and at 4° C., on a JA20 rotor (Beckman). The supernatant was incubated with 5 ml of a glutathione support (G4B Pharmacia) at ambient temperature for 30 minutes. The column was filled. The fusion protein was eluted with a 10 mM glutathione, 50 mM Tris, pH 8, solution at a flow rate of 0.05 ml/min. The fractions absorbing at 280 nm were collected and applied in portions of 500 μl to an ion exchange column (MonoQ, Pharmacia). The column was eluted with a 150 mM solution of NaCl and a 42 kD protein was identified on an SDS-PAGE gel and then confirmed by mass spectroscopy. The production yields of soluble fusion protein are 5 mg/l of culture.
Following purification, the fusion protein sample was dialyzed against a buffer (150 mM NaCl, 2.5 mM CaCl2, 50 mM Tris/HC1) at pH=8. Human thrombin (T7009, Sigma) was added to give a final concentration of 5u per mg of fusion protein. The mixture was incubated at ambient temperature for 30 minutes. The products of the cutting reaction were characterized on an SDS-PAGE gel and a protein having a molecular weight of 18 kD (corresponding to the expected molecular weight of NBF1) was observed.
The GST-NBF1 fusion protein is efficiently recognized by an anti-NBF1 antibody (MATG 1061, distributed by Transgene). The affinity of this recombinant protein for ATP was verified. […]

B1: NBF1: Recombinant NBF1 domain of the CFTR protein (sequence R450-I586), 18 kD, released from GST fusion by thrombin (protein, UniProt P13569 450-586, looked up, fragment)
chain: RGQLLAVAGSTGAGKTSLLMVIMGELEPSEGKIKHSGRISFCSQFSWIMPGTIKENIIFGVSYDEYRYRSVIKACQLEEDISKFAEKDNIVLGEGGITLSGGQRARISLARAVYKDADLYLLDSPFGYLDVLTEKEI
behaviour on column of immobilized GSH: retained on the GSH column
